Positions count from the first letter of the chain named. Names may count otherwise. Blank lines part the entries; values can stand above or below the binder they belong to.
Experiments:
[1] = target: T1, Vκ4Len(1-22) monomer peptide (Homo sapiens (Human), UniProt P06312 21-42); test: pulldown, labelled antibody, peptide on beads
T1 construct: Free peptide as analyte in SPR; also called Vκ4(LEN(1-22) beads)
T1 peptide: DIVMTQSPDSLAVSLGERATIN

[2] = target: T2, synthetic amyloid-like fibrils of recombinant amyloidogenic λ6 variable domain protein (rVλ6Wil); test: EuLISA, substrate coated on plate
T2 construct: domain: λ6 variable domain; Fibrillar aggregate of many copies; also called rVλ6Wil fibrils; rVλ6Wil synthetic fibrils
Method: (§1) To perform europium-linked immunosorbent assays (EuLISAs), suspensions of rVλ6Wil fibrils (sonicated) were prepared at 0.83 μM in phosphate buffered saline (PBS). The fibrils were coated onto the wells of a 96-well microplate by adding 50 μL to each well. The plates dried at 37° C. overnight. The wells of the microplate were blocked by addition of Superblock (Thermofisher) (SB) using 200 µL/well, and left at 37° C. for 1 hour. The primary (test) antibody (i.e., the humanized antibody) were added, prepared in SB+0.05% tween 20 (SBT) in a 1:2 dilution series starting at 1 μM using 100 µL/well. Plates were then incubated for 1 hour at 37° C. After a wash step (plates were washed three times using PBS+0.05% tween 20), secondary antibody was added as a 1:3000 dilution of biotinylated goat anti-human IgG (Sigma) in SBT at 100 µL/well. The plates were incubated for 1 hour at 37° C. After another wash step, 100 µL/well of a 1:1000 dilution of europium/streptavidin (Perkin Elmer) in SBT was added. The plates were incubated for 1 hour at 37° C. After a final wash step, 100 μL/well of europium enhancement solution (Perkin Elmer) was added. Time-resolved fluorescence emission was detected using a microplate reader (Wallac).
(§2) Table 8, below, provides the results of the ELISAs measuring the ability of mIgp5, hIgG1, c11-1F4, m11-1F4, VH6/VL3-p5, VH9/VL4-p5, and VH9/VL4-p5R to bind rVλ6Wil fibrils, Per125 wtATTR extract, KEN hATTR extract, SHI ALλ liver extract, and TAL ALκliver extract. For each combination of antibody and substrate, the Log-transformed EC₅₀, EC₅₀, and maximal level of binding in the assay is shown. Conditions labeled “na” were not tested.

hIAPP fibril = target: T3, hIAPP fibril (UniProt P10997 34-70); test: pulldown, labelled antibody
T3 construct: Fibrillar aggregate
T3 chain (looked up): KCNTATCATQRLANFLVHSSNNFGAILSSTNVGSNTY

[3] = target: T2, synthetic amyloid-like fibrils of …; test: pulldown, labelled antibody
[4] = target: T4, Aβ(1-40) amyloid-like fibrils (UniProt P05067 672-711); test: pulldown, labelled antibody
T4 construct: domain: Aβ(1-40); Fibrillar aggregate; The numbers 1-40 count on Aβ, not on the precursor; also called Aβ(1-40) fibrils
T4 sequence (P05067 672-711 limits assumed): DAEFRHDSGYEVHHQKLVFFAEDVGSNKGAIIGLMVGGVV

[5] = target: T2, synthetic amyloid-like fibrils of …; test: EuLISA, fibrils coated on plate (FIG. 13B)
[6] = target: T5, Per125 wtATTR amyloid extract (human, UniProt P02766 21-147); test: EuLISA, substrate coated on plate
Method: as §1, §2

[7] = target: T5, Per125 wtATTR amyloid extract; test: pulldown, labelled antibody
[8] = target: T6, TAL ALκ liver amyloid extract; test: EuLISA, substrate coated on plate
T6 construct: Tissue amyloid extract; also called ALκTAL extract
Method: as §1, §2

[9] = target: T7, SHI ALλ liver amyloid extract; test: EuLISA, substrate coated on plate
T7 construct: Tissue amyloid extract; also called SHI AL liver extract; ALλ SHI extract
Method: as §1, §2

[10] = target: T8, Per125 wtATTR amyloid extract (human, UniProt P02766 21-147); test: EuLISA, substrate coated on plate; remark: listed apart in the source
Method: as §1, §2

[11] = target: T5, Per125 wtATTR amyloid extract; test: EuLISA, extract coated on plate
[12] = target: T1, Vκ4Len(1-22) monomer peptide; test: SPR Biacore 8K, antibody immobilised, peptide as analyte
Method: The affinity of humanized anti-amyloid antibodies binding to Vκ4Len(1-22) (“Len(1-22) monomer”) monomer peptide—the natural ligand for the m11-1F4 antibody—was measured using a Biacore 8K surface plasmon resonance (SPR) system. Parental antibody m11-1F4 binds to an epitope present at the N-terminal of denatured kappa 4 light chain proteins. The Len (1-22) monomer is a peptide comprising this epitope, as described in International Application No. PCT/US2017/015905. Binding affinities of anti-amyloid antibodies incorporating the humanized heavy chain region VH9 and the humanized light chain VL4 were tested, including versions of VH9 and VL4 with additional mutations (Table 5).
All SPR data were processed using the Biacore 8K Evaluation software version 1.1. Flow cell 1 and blank injections of buffer in each cycle were used as double reference for Response Units subtraction.
Table 7 provides the results of SPR assays measuring the binding of the humanized anti-amyloid antibodies to a Len(1-22) Monomer peptide. Specifically, the humanized VH9 and VL4 sequences were tested with or without additional amino acid substitutions, as indicated in the “Ligand” column of Table 7.

[13] = target: T2, synthetic amyloid-like fibrils of …; test: pulldown, 125I-labelled antibody
[14] = target: Per253 wild type (wt) ATTR amyloid extract (human, UniProt P02766 21-147); test: pulldown, labelled antibody
[15] = target: T6, TAL ALκ liver amyloid extract; test: pulldown, labelled antibody
TYL ALλ amyloid extract = target: T9, TYL ALλ amyloid extract; test: pulldown, labelled antibody
T9 construct: Tissue amyloid extract; also called ALλ TYL extract

[16] = target: T7, SHI ALλ liver amyloid extract; test: pulldown, labelled antibody
[17] = target: T8, Per125 wtATTR amyloid extract; test: pulldown, labelled antibody; remark: listed apart in the source
HIG ALκ1 amyloid extract = target: T10, HIG ALκ1 amyloid extract; test: pulldown, labelled antibody
T10 construct: Tissue amyloid extract; also called ALκ HIG extract

B2: VH9/VL4-p5 (humanized VH9/VL4 with peptide p5 fused to the N-terminal of the light chain) (antibody, V domains shown)
VH: QVQLQESGPGLVKPSETLSLTCTVSGFSLSSYGVSWIRQPPGKGLEWLGVIWGDGSTNYHPNLMSRVTISVDTSKSQVLFKLSSVTAADTAVYYCATLDYWGQGTSVTVSS
VL: DVVMTQSPLSLPVTLGQPASISCRSSQSLVHRNGNTYLHWFQQRPGQSPRLLIYKVSNRFSGVPDRFSGSGSGTDFTLKISRVEAEDVGVYFCFQTTYVPNTFGGGTKLEIK
percent bound [1]: 54.4% | EC50 [2]: 4.05 nM | LogEC50 [2]: 8.39 -log(M) | Max (maximal level of binding) [2]: 71 | EC50 [6]: 24.5 nM | LogEC50 [6]: 7.61 -log(M) | Max (maximal level of binding) [6]: 58.1 | percent bound [3]: 24.7% | percent bound [7]: 1.33%

B3: chimeric (c) 11-1F4 (antibody, V domains shown)
VH: QVQLKESGPGLVAPSQSLSITCTVSGFSLSSYGVSWVRQPPGKGLEWLGVIWGDGSTNYHPNLMSRLSISKDISKSQVLFKLNSLQTDDTATYYCVTLDYWGQGTSVTVSS
VL: B2 VL with S7T, T14S, Q17D, P18Q, F41Y, Q42L, R44K, R50K, V88L, V90L
notes: also called ch11-1F4; ci1-1F4
Max (maximal level of binding) [2]: 63.9 | Max (maximal level of binding) [8]: ~17800 | Max (maximal level of binding) [9]: 51.3 | Max (maximal level of binding) [10]: 71.1

B4: murine antibody m11-1F4 (antibody, V domains shown)
VH: B3 VH
VL: B2 VL with S7T, T14S, Q17D, P18Q, F41Y, Q42L, R44K, R50K, V88L, V90L
notes: Murine IgG1 kappa; also called murine 11-1F4; m1-1F4
Max (maximal level of binding) [2]: 184 | Max (maximal level of binding) [8]: ~35100 | Max (maximal level of binding) [9]: ~1510 | Max (maximal level of binding) [10]: 209

B7: VH9 + VL4-G34V (antibody, V domains shown)
VH: B2 VH
VL: B2 VL with G34V
Kd [12]: 35 nM | koff [12]: 0.00146 s⁻¹ | kon [12]: 41800 M⁻¹ s⁻¹

More lines, now with the values ahead:

percent bound [1]: 54.9% | EC50 [2]: 3.49 nM | LogEC50 [2]: 8.46 -log(M) | Max (maximal level of binding) [2]: 65.3 | percent bound (hIAPP fibril): 4.82% | percent bound [3]: 22.5% | percent bound [4]: 20.6% | EC50 [5]: 3 nM | fold enhancement of binding over VH6/VL3 (based on EC50) [5]: ~30 fold
B1: VH6/VL3-p5 (humanized VH6/VL3 with peptide p5 fused to the N-terminal of the light chain) (antibody, V domains shown)
VH: B2 VH with I37V, V67L, T68S, V71K, S76N, V78F, L79S, F80L, V92T, A96V
VL: B2 VL with F41Y, Q42L, V90L

percent bound [1]: 50.2% | EC50 [2]: 3.91 nM | LogEC50 [2]: 8.41 -log(M) | Max (maximal level of binding) [2]: 82.7 | EC50 [6]: 14 nM | LogEC50 [6]: 7.86 -log(M) | Max (maximal level of binding) [6]: 55.7 | percent bound [3]: 22.6% | percent bound [7]: 1.12%
B5: VH9/VL4-p5R (humanized VH9/VL4 with peptide p5R fused to the N-terminal of the light chain) (antibody, V domains shown)
VH: B2 VH
VL: B2 VL

EC50 [11]: 85 nM | EC50 [5]: 3 nM | fold enhancement of binding over VH6/VL3 (based on EC50) [5]: ~30 fold
B6: VH6/VL3-p5R (humanized VH6/VL3 with peptide p5R fused to the N-terminal of the light chain) (antibody, V domains shown)
VH: B2 VH with I37V, V67L, T68S, V71K, S76N, V78F, L79S, F80L, V92T, A96V
VL: B2 VL with F41Y, Q42L, V90L

fold higher binding than murine 11-1F4 [13]: 21 fold | EC50 [2]: 2.88 nM | LogEC50 [2]: 8.54 -log(M) | Max (maximal level of binding) [2]: 58.5 | EC50 [8]: 3.37 nM | LogEC50 [8]: 8.47 -log(M) | Max (maximal level of binding) [8]: 24.6 | EC50 [9]: 2.94 nM | LogEC50 [9]: 8.53 -log(M) | Max (maximal level of binding) [9]: 24 | EC50 [10]: 6.24 nM | LogEC50 [10]: 8.21 -log(M) | Max (maximal level of binding) [10]: 31.7 | percent bound [14]: 17% | percent bound [3]: 71% | percent bound [15]: 37% | percent bound (TYL ALλ amyloid extract): 21% | percent bound [16]: 34% | percent bound [17]: 31% | percent bound (HIG ALκ1 amyloid extract): 10%
B8: murine Ig-peptide fusion Igp5 (murine 11-1F4 with peptide p5 fused to the N-terminus of the light chain) (antibody)
heavy: B3 VH
light: AQAGQAGQAQGGGYSKAQKAQAKQAKQAQKAQKAQAKQAKQVTPTVDVVMTQTPLSLPVSLGDQASISCRSSQSLVHRNGNTYLHWYLQKPGQSPKLLIYKVSNRFSGVPDRFSGSGSGTDFTLKISRVEAEDLGLYFCFQTTYVPNTFGGGTKLEIK
notes: Antibody-peptide fusion; unlabelled in the EuLISA; also called mIgp5; mIgG-p5; not shown: murine 11-1F4 (IgG1) CH1 followed by murine IgG2a CH2-CH3 (pFUSE-mIgG2A-Fc); murine 11-1F4 kappa constant region (CL)

Reference: patent US20250368729A1 (ATTRALUS, published 2025)
